Source: the RNAGym collection of RNA variant scans (doi:10.1073/pnas.2313332121)

B1: TPR t1 (parent)
chain: GACCAAUCUGCCCUCAGAGCUCGAGAACAUCUUCGGAUGCAGAGGAGGCAGGCUUCGGUGGCGCGAUAGCGCCAACGUCCUCAACCUCCAAUGCAUCCCACCACAUGAUGAUGCCUGAAGAGCCUUGGUUUUUUG

Variants of: B1
Assay: polymerase ribozyme fitness, log enrichment relative to wild type (log ratio); higher = more active; in vitro selection for triplet polymerase activity
In short: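 Both subunits of a heterodimeric triplet polymerase ribozyme were given their own mutant library, built by PCR and transcribed. Each library was annealed with a biotinylated primer, the partner subunit and triplets, incubated frozen at −7 °C, and its extended constructs gel-excised, captured on streptavidin beads and amplified by RT-PCR, all in one round done in triplicate. Fitness is the logarithm of genotype enrichment relative to wild-type enrichment, with replicates averaged by inverse-variance weighting. That logarithm is base 2, and Illumina-sequenced genotypes needed ≥10 input reads and ≥1 read per output.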

Row | Variant | polymerase ribozyme fitness (log ratio)
1 | C13U U59A G60A C80U A95C G120U | -1.94
2 | U14A A26U | -5.1
3 | C13G G36C C40U | -2.55
4 | C13G C62U U81A C94U C101U | -3.12
5 | C13U C56U A111G | 0.163
6 | U14G A95U | -2.44
7 | U14G A95G | -2.23
8 | C15G A50U | -3.73
9 | C15G A43U C56U | -3.19
10 | C13U G19A G77C U81C | -3.54
11 | C13U U112A C123A G128C | -1.12
12 | C13U C89G | -1.01
13 | C13U A27U C72A U130A | -2.6
14 | C13U C72U | -0.334
15 | C13G G117A | -1.95
16 | C15A U92A | -4.5
17 | U14G G42C A46C C53U G61A | -4.45
18 | C13G G36U G60A G110U | -4.24
19 | C13G C70A | -2.2
20 | U14C A50U U96C C115U A121U | -5.13
21 | C15A C72A | -1.94

Row | Variant | polymerase ribozyme fitness (log ratio)
22 | C15A C72U | -2.75
23 | C15A A66G U81C | -4.15
24 | U14G G45A C102U | -5.41
25 | C15A G61U | -0.806
26 | C15A C40A | -3.27
27 | C13U G120A | 1.58
28 | C13U G120C | 1.89
29 | C13U C98A | -4.9
30 | U14A C49U G60A A100U U106A | -3.83
31 | C15G A46G G71A C88G | -5.35
32 | U14G C101U U126G | -4.96
33 | C15A A16U C88A | -3.46
34 | C15A G47U | -4.02
35 | C13G G45U C89A G120U U130A | -3.41
36 | C13U G122A | 0.447
37 | U14A C31U U32G C53G C80A C104U G120C G135U | -7.94
38 | C13G G57C C73A G110A | -2.44
39 | C15A U109A | -5.42
40 | U14A A37C C40A G69U | -4.24
41 | C13G G45A G48A G61C | -3.73
42 | C13U G60A C82A U131G | -0.416

Row | Variant | polymerase ribozyme fitness (log ratio)
43 | C13U | 0.225
44 | C13G G35C C64U A90G G93A C97A C124A | -5.83
45 | C15A C53G C102U | -4.5
46 | C15G A41G C104U | -2.92
47 | C13G G35U G61U C102U | -6.42
48 | C13G U54C C85U U87C | -1.99
49 | C13U C20U G63U | -2.31
50 | C13U C15G C88A U96C | -2.33
51 | C13U A43G G60A | -1.39
52 | U14G C40U U59C A84G U129A | -6.42
53 | C13G U32C A46U C70A C104U | -3.75
54 | U14C C62U | -1.6
55 | C13U A18U U81G G117U | -6.34
56 | C13U A37C U55A | -0.3
57 | U14A G63A G93A | -4.67
58 | C13U A41G A46G C53A U78C | -0.474
59 | C13U A37C C53G G128C | -1.48
60 | C15A C85G C94A | -3.92
61 | C15A A16U C20A C89G G117U | -3.6
62 | U14G G44C C80U | -3.74
63 | C13G G47U U87A C88U G110U | -6.69

Row | Variant | polymerase ribozyme fitness (log ratio)
64 | C13U A37U | 0.687
65 | U14G A37U C70U A74U U133G | -3.41
66 | U14A C20G C40U G45A G63C U96G U112A G117A | -6.83
67 | C15A C20U | -3.39
68 | U14G U54C | -2.42
69 | C15A G52U A66U C94G | -5.17
70 | C13U C56U A90G | 0.402
71 | C13U C76U | -0.121
72 | C13U G35C | -3.79
73 | C13U U30C C80A C89U C124G | -5.32
74 | C13U G48A C98U G122A G128C G135U | -1.66
75 | C13U A50C | -0.095
76 | C13U U59C A83U U96G | -1.05
77 | U14G C56G A84U U106C G110U | -5.11
78 | U14G C64U C98U | -4.29
79 | C15A G39U C40U C64U G93C | -4.09
80 | U14A A84C G122A | -1.57
81 | C13U G47C U78C U109G | -4.45
82 | C13U G45A G51U C115A | -3.13
83 | C13U C15U U54G U81A U96A | -3.41
84 | C13U C70A C72U | -1.42
